In patent US20120253017A1:
Numbering of substitutions follows the chain as printed. Values belong to the binder of their own block, whether it stands above or below them.

Columns and labels:
[1] = target: mouse c-kit (recombinant, on BIAcore chip) (mouse) (UniProt P05532); assay: BIAcore
[2] = target: mouse c-kit (recombinant, on BIAcore chip) (mouse) (UniProt P05532); assay: BIAcore 2000, 1 uM dAb
[3] = target: mouse c-kit (recombinant, on BIAcore chip) (mouse) (UniProt P05532); assay: BIAcore, c-kit on SA chip
[4] = target: T1, Mouse cKIT ECD-Fc (mouse; human) (UniProt P05532); assay: BIAcore
T1 sequence (looked up): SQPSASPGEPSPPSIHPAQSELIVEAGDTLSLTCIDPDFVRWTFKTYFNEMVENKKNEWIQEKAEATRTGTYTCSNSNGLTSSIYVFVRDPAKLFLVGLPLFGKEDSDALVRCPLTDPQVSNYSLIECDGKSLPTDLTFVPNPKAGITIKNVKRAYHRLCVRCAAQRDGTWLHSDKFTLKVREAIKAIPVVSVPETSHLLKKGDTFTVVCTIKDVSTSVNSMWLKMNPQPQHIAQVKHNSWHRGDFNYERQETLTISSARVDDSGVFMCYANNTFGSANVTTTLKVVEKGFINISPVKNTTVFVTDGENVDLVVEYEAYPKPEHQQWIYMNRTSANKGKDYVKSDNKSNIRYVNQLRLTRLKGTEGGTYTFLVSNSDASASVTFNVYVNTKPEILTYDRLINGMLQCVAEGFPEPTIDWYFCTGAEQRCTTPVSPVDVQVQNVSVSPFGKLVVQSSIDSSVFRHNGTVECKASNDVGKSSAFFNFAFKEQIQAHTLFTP

[5] = target: human c-kit (recombinant, on BIAcore chip or beads) (human) (UniProt P10721); assay: BIAcore
Sequence of human c-kit (recombinant, on BIAcore chip or beads) (human) (P10721 26-524): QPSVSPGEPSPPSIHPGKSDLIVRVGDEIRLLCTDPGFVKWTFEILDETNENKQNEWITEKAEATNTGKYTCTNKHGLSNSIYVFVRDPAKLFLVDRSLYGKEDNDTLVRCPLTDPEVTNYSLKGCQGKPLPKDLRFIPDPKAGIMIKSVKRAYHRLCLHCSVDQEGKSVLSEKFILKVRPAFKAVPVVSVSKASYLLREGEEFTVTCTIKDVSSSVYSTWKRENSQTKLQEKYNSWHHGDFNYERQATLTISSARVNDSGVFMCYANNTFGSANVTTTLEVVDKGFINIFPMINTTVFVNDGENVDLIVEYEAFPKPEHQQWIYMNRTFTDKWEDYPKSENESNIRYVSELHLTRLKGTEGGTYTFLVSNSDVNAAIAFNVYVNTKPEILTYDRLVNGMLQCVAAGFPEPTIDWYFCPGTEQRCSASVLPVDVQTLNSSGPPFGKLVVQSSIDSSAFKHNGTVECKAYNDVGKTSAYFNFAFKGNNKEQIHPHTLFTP

[6] = target: mouse c-kit (recombinant, on BIAcore chip) (mouse) (UniProt P05532); assay: BIAcore, dAb at 1000 and 500 nM
[7] = target: mouse c-kit (recombinant, on BIAcore chip) (mouse) (UniProt P05532); assay: BIAcore, approximate kinetic constants

B2: DMS5052 (chimeric MLC mAb-cKIT dAb, DOM28m-007) (bispecific antibody, not shown: a dimerising Fc or GST)
heavy (part 1 of 2): QVQLQQSGAELASPGASVKLSCKASGYTFTTYWIHWVKQRPGQGLEWIGAIYPGDGDTRYTQNFKDKATLTADSSSSTAYMQLSSLASEDSAVFYCAREGTPPFTTATFAMAYWGQGTSVTVSS
heavy (part 2 of 2): STGEVQLLESGGGLVQPGGSLRLSCAASGFTFSNYAMGWVRQAPGKGLEWVSSISSSGFATYYADSVKGRFTISRDNSKNTLYLQMNSLRAEDTAVYYCAKSESRTFKAFDYWGQGTLVTVSS
light: DIVMSQSPSSLAVSAGDKVTMSCKSSQSLLYSRTRKNYLAWYQQKPGQSPKLLIYWASTRQSGVPDRFTGSGSGTDFTLTISSVQAEDLAVYYCKQSYNLFTFGSGTKLEIKR
- Kd [4]: 36 nM
- Kd [5]: 27 nM
- Kd [1]: 80 nM

B3: DMS5060 (chimeric MLC mAb-cKIT dAb, DOM28h-094) (bispecific antibody, not shown: a dimerising Fc or GST)
heavy (part 1 of 2): B2 heavy (part 1 of 2)
heavy (part 2 of 2): STGEVQLLESGGGLVQPGGSLRLSCAASGFTFFPYAMGWVRQAPGKGLEWVSFISGRGDTTYYADSVKGRFTISRDNSKNTLYLQMNSLRAEDTAVYYCAKTATSDLWNFDYWGQGTLVTVSS
light: B2 light
- Kd [4]: 13 nM
- Kd [5]: 36 nM
- Kd [1]: 14 nM

B4: DOM28h-94 (protein)
VH: EVQLLESGGGLVQPGGSLRLSCAASGFTFFPYAMGWVRQAPGKGLEWVSFISGRGDTTYYADSVKGRFTISRDNSKNTLYLQMNSLRAEDTAVYYCAKTATSDLWNFDYWGQGTLVTVSS
- Kd [3]: 1500 nM
- Kd [6]: 1500 nM

Other lines, results leading:

- Kd [1]: 22000 nM
- Kd [2]: 22 µM
- Kd [3]: 2800 nM
B1: DOM28m-23 (protein)
VH: EVRLLESGGGLVQPGGSLRLSCAASGFTFRDYVMVWVRQAPGKGLEWVSAIAPTGGYTYYADSVKGRFTISRDNSKNTLYLQMNSLRAEDTAVYYCAKSLRTWLSEDLPFDYWGQGTLVTVSS

- Kd [7]: 11 nM
B5: DOM28h-94-12 (protein)
VH: B4 VH with L4P, A24V, F29V, W110R

- Kd [7]: 112 nM
B6: DOM28h-94-10 (protein)
VH: B4 VH with F29V, W110R

- Kd [1]: 3000 nM
- Kd [2]: 4 µM
B7: DOM28m-7 (protein)
VH: EVQLLESGGGLVQPGGSLRLSCAASGFTFSNYAMGWVRQAPGKGLEWVSSISSSGFATYYADSVKGRFTISRDNSKNTLYLQMNSLRAEDTAVYYCAKSESRTFKAFDYWGQGTLVTVSS

- Kd [1]: 9000 nM
- Kd [2]: 9 µM
B8: DOM28m-73 (protein)
chain: EVQLLESGGGLVQPGGSLRLSCAASGFTFKHYSMNWVRQAPGKGLEWVSRISPSGVSTYYADSVKGRFTISRDNSKNTLYLQMNSLRAEDTAVYYCAKIMNSHKADEFDYWGQGTLVTVSS
